This series deals with the molecule itself. Nature of the series: negative-stain electron microscopy.

The values that follow come from paper PMC4160023 (Nature, 2013).

B1: hRegIIIα E114Q mutant (natural protein, human, UniProt Q06141 38-175, looked up)
chain: IRCPKGSKAYGSHCYALFLSPKSWTDADLACQKRPSGNLVSVLSGAEGSFVSSLVKSIGNSYSYVWIGLHDPTQGTQPNGEGWEWSSSDVMNYFAWERNPSTISSPGHCASLSRSTAFLRWKDYNCNVRLPYVCKFTD
Consider B1, for which the binding result was “binds”.
